Patent US20110300157A1 (DYAX, published 2011)

Legend:
[1] = biological target: T1, active human MMP-9 catalytic domain (BIOMOL, SE-244) (human, UniProt P14780 107-444, limits assumed); assay: plot of kobs vs antibody concentration from inhibition progress curves, 25 C
T1 construct: domain: catalytic domain; also called Cat-huMMP-9; cat-huMMP-9
Protocol: Materials: [0447] Substrate: Mca-KPLGL-Dap(Dnp)-AR-NH₂ (M-2350) from BACHEM (521575). A 10 mM stock solution was prepared in DMSO. [0448] Human MMP-9 catalytic domain (BIOMOL, SE-244). [0449] M0237-D02 hIgG1: 2517-068. [0450] All measurements were performed at 25° C. in TCNB: 50 mM Tris/HCl, 10 mM CaCl₂, 150 mM NaCl 0.05% Brij 35, pH 7.5. [0451] 96-well black plates from Perkin Elmer (6005270) [0452] Spectramax M2e to measure fluorescence emission of the substrate upon hydrolysis (λexc=328 nm and λₑₘ=393 nm)
The enzyme (at a final concentration ranging from 1.5 to 12.3 nM), the substrate (9 μM final) and the M0237-D02 antibody were mixed, and the fluorescence was immediately recorded in order to follow the hydrolysis of the substrate. The observed inhibition rate (kobs) was obtained by analyzing the progress curves with a single exponential. The value for kₒₙ and koff were calculated from the plot of the kobs vs. the antibody concentration using the following equation: […]

h-MMP-9/h-TIMP-1 complex = biological target: T2, h-MMP-9/h-TIMP-1 complex (human, UniProt P14780 107-444; P01033 24-207, limits assumed); assay: SPR Biacore 3000, antibody amine-coupled to CM5 chip (direct capture)
T2 construct: also called huTIMP-1/cat-huMMP-9; MMP-9/TIMP-1 complex
T2 sequence (P14780 107-444 limits assumed, chain 1 of 2): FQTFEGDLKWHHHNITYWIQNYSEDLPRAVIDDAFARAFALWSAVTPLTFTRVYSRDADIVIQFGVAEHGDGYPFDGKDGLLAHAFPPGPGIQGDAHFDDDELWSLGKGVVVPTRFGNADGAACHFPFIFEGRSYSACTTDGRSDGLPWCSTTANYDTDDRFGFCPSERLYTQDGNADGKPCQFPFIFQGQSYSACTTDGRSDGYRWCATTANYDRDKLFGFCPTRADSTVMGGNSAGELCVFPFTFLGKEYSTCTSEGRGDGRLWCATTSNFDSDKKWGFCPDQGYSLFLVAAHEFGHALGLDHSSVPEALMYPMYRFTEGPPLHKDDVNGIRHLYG
T2 sequence (P01033 24-207 limits assumed, chain 2 of 2): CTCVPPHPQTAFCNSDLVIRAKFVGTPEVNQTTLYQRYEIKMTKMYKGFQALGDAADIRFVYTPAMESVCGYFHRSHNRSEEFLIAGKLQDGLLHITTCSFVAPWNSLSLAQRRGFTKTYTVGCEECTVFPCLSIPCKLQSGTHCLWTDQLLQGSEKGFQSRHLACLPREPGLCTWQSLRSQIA
Protocol: (§1) Experiments were performed at 25° C. with the help of a Biacore 3000 instrument. The MMP-9 binding protein (M0166F10) and the M0237-D02 antibody were coated to a CM5 chip either via standard amine coupling or using an anti-Fc antibody surface. Then either the active, human MMP-9 catalytic domain (BIOMOL, SE-244), the human pro-MMP-9 (R&D, 911-MP), the human TIMP-1 (R&D, 970-TM) or a h-MMP-9/h-TIMP-1 complex were flowed over the antibody surfaces, and binding was recorded.
(§2) It was shown that the human MMP-9 catalytic domain binds to M0166-F10, whether this antibody is directly captured via amine coupling or captured with an anti-Fc antibody surface.

[2] = biological target: Mouse MMP-9 (R&D, 909-MM), APMA-activated (mouse, UniProt P41245 108-730, limits assumed); assay: enzyme inhibition with fluorogenic peptide substrate Mca-KPLGL-Dap(Dnp)-AR-NH2; Ki from IC50 vs substrate concentration, 30 C
Sequence of Mouse MMP-9 (R&D, 909-MM), APMA-activated (P41245 108-730 limits assumed): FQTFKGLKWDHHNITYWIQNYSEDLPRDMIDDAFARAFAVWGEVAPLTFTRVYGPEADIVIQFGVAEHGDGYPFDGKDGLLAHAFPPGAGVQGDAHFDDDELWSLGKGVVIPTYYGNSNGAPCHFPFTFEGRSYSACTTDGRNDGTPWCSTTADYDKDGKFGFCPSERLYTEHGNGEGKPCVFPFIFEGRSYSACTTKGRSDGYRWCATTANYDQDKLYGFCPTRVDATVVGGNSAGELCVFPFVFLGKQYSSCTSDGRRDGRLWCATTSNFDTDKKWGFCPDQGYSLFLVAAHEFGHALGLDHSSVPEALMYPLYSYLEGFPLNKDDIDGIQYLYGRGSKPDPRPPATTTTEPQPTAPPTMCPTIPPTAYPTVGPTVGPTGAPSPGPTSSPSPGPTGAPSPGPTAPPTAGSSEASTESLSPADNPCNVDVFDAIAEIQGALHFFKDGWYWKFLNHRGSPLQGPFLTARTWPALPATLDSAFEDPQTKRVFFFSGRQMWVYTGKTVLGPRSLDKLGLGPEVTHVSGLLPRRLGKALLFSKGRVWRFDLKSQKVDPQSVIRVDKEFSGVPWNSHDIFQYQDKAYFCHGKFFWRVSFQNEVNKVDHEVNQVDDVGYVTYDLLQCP
Protocol: (§3) Materials: [0424] Substrate: Mca-KPLGL-Dap(Dnp)-AR-NH₂ (M-2350) from BACHEM (521575). A 10 mM stock solution was prepared in DMSO. [0425] Enzymes: [0426] Human MMP-9 catalytic domain (BIOMOL, SE-244). Enzyme concentration was measured by titration with TIMP-1 (2522-104) [0427] Mouse MMP-9 (R&D, 909-MM), APMA-activated. [0428] M0237-D02 hIgG1: 2517-014. Dialysed against TCN. [0429] TCNB: 50 mM Tris/HCl, 10 mM CaCl₂, 150 mM NaC, […] Brij 35, pH 7.5. [0430] 96-well black plates from Perkin Elmer (6005270) [0431] Spectramax M2e to measure fluorescence emission of the substrate upon hydrolysis (temperature control set at 30° C.; λexc=328 nm and λₑₘ=393 nm)
(§4) The enzyme (final concentration=0.23 and 0.17 nM for the human and mouse MMP-9, respectively) was preincubated with various concentrations (0-50 nM) of M0237-D02 for 1 h at 30° C. The substrate was then added to a final concentration ranging from 5 to 40 μM and initial rates were recorded.

[3] = biological target: T1, active human MMP-9 catalytic domain …; assay: as above
Protocol: as §3, §4

[4] = biological target: T3, human TIMP-1 (R&D, 970-TM) (human, UniProt P01033 24-207); assay: SPR Biacore 3000, antibody amine-coupled to CM5 chip (direct capture)
T3 construct: also called huTIMP-1; h-TIMP-1
T3 sequence (P01033 24-207 limits assumed): as the sequence (P01033 24-207 limits assumed, chain 2 of 2) above
Protocol: as §1, §2

[5] = biological target: T4, human pro-MMP-9 (R&D, 911-MP) (human, UniProt P14780 20-707); assay: as above
T4 construct: Zymogen form; also called Pro-huMMP-9
T4 sequence (P14780 20-707): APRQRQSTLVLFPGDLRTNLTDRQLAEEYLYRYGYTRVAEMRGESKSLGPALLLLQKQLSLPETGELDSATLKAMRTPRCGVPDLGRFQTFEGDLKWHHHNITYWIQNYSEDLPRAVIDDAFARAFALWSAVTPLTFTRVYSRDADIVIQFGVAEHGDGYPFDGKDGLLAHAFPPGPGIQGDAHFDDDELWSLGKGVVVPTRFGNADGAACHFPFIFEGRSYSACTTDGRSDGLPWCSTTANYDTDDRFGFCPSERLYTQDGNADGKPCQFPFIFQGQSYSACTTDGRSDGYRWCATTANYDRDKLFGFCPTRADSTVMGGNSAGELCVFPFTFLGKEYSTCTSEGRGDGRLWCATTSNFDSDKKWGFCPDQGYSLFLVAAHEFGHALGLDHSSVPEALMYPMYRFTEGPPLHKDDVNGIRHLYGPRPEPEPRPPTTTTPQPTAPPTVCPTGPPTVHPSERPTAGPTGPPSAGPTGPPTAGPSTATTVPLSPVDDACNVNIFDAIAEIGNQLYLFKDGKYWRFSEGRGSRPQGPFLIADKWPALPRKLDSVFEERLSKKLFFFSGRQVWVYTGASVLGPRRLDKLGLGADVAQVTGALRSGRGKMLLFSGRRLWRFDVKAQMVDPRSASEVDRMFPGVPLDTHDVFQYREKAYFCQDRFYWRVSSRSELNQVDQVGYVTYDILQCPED
Protocol: as §1, §2

T1 sequence (P14780 107-444 limits assumed): as the sequence (P14780 107-444 limits assumed, chain 1 of 2) above

koff [1] | kon [1] | binding result (h-MMP-9/h-TIMP-1 complex) | Ki [2] | Ki [3] | binding result [4] | binding result [5] | Binder
~0.0004 s⁻¹ | ~70000 M⁻¹ s⁻¹ | no binding | 1.3 nM | 0.92 nM | – | – | 539A-M0237-D02 hIgG1 (antibody, V domains shown, Tested as hIgG1; also called M237-D02; DL8) VH: EVQLLESGGGLVQPGGSLRLSCAASGFTFSQYPMWWVRQAPGKGLEWVSYIVPSGGRTYYADSVKGRFTISRDNSKNTLYLQMNSLRAEDTAVYYCAKDRAYGDYVGWNGFDYWGQGTLVTVSS VL: DIQMTQSPATLSLSPGERATLSCRASQSISSFLAWYQQKPGQAPRLLIYDASYRATGIPARFSGSGSGTDFTLTISSLEPEDYAVYYCQQRGNWPITFGQGTRLEIKR
– | – | no binding | – | – | no binding | no binding | 539A-M0166-F10 (antibody, V domains shown, also called DL15) VH: EVQLLESGGGLVQPGGSLRLSCAASGFTFSPYLMNWVRQAPGKGLEWVSSIYSSGGGTGYADSVKGRFTISRDNSKNTLYLQMNSLRAEDTAVYYCARIYHSSSGPFYGMDVWGQGTTVTVSS VL: QSELTQPPSASAAPGQRVTISCSGSSSNIGSNTVTWYQKLPGTAPKLLIYNNYERPSGVPARFSGSKSGTSASLAISGLQSEDEADYYCATWDDSLIANYVFGSGTKVTVLG
